Measured values taken from patent publication US7118877.
Like-named read-outs stand apart in the source and are kept apart here.

Columns and labels:
[1] = test system: T1, Ac-IETD-Afc
T1 sequence: IETD

[2] = test system: T2, Ac-LEHD-Afc
T2 sequence: LEHD

[3] = test system: T3, Ac-VEID-Afc
T3 sequence: VEID

[4] = test system: T4, Ac-WEHD-Afc
T4 sequence: WEHD

[5] = test system: T5, Ac-DEVD-Afc
T5 sequence: DEVD

[6] = target: T6, Ac-LEHD-Afc
T6 chain: LEHD

Question: Which “Optimum substrate at pH 7.2 (rate of AFC release, fluorogenic cleavage assay)” value (“Optimum substrate” below) [1] does the source give for Caspase 6 here?
Answer: Ac-IETD-Afc (SEQ ID NO:2)

Question: Which “Optimum substrate” value [2] does the source give for Caspase 2 here?
Answer: Ac-LEHD-Afc (SEQ ID NO:5)

Question: With Caspase 1 as the molecule, how does the “Optimum substrate” value [3] read?
Answer: Ac-VEID-Afc (SEQ ID NO:6)

Question: What about the “Optimum substrate” value [2] of the same molecule?
Answer: Ac-LEHD-Afc (SEQ ID NO:5),

Question: And the “Optimum substrate” value [4]?
Answer: Ac-WEHD-Afc (SEQ ID NO:4),

Question: Which “Optimum substrate” value [2] does the source give for Caspase 8 here?
Answer: Ac-LEHD-Afc (SEQ ID NO:5

Question: Which “Optimum substrate” value [5] does the source give for Caspase 7 here?
Answer: Ac-DEVD-Afc (SEQ ID NO:1)

Question: Which results are given for Caspase 10?
Answer: Optimum substrate at pH 7.2 (rate of AFC release, fluorogenic cleavage assay) [1]: Ac-IETD-Afc (SEQ ID NO:2),; Optimum substrate at pH 7.2 (rate of AFC release, fluorogenic cleavage assay) [2]: Ac-LEHD-Afc (SEQ ID NO:5)

Question: For Caspase 3, which “Optimum substrate” value [5] is on record?
Answer: Ac-DEVD-Afc (SEQ ID NO:1)

B1: Caspase 9 (protein)
chain: MDEADRRLLRRCRLRLVEELQVDQLWDALLSRELFRPHMIEDIQRAGSGSRRDQARQLIIDLETRGSQALPLFISCLEDTGQDMLASFLRTNRQAAKLSKPTLENLTPVVLRPEIRKPEVLRPETPRPVDIGSGGFGDVGALESLRGNADLAYILSMEPCGHCLIINNVNFCRESGLRTRTGSNIDCEKLRRRFSSLHFMVEVKGDLTAKKMVLALLELAQQDHGALDCCVVVILSHGCQASHLQFPGAVYGTDGCPVSVEKIVNIFNGTSCPSLGGKPKLFFIQACGGEQKDHGFEVASTSPEDESPGSNPEPDATPFQEGLRTFDQLDAISSLPTPSDIFVSYSTFPGFVSWRDPKSGSWYVETLDDIFEQWAHSEDLQSLLLRVANAVSVKGIYKQMPGCFNFLRKKLFFKTS
Question: B1 was tested. Which “Optimum substrate” value [6] did it give?
Answer: Ac-LEHD-Afc (SEQ ID NO:5
